{"source": "patent US10465005B2", "about": "“JAML specific binding agents, antibodies, and uses related thereto” (Emory University, priority 2011, dated 2019)", "molecules": {"B1": {"name": "sJAML: recombinant soluble fragment of JAML.D1D2 tagged with 10 His residues at the C-terminus (protein)", "chain": "LNDLNVSPPELTVHVGDSALMGCVFQSTEDKCIFKIDWTLSPGEHAKDEYVLYYYSNLSVPIGRFQNRVHLMGDILCNDGSLLLQDVQEADQGTYICEIRLKGESQVFKKAVVLHVLPEEPKELMVHVGGLIQMGCVFQSTEVKHVTKVEWIFSGRRAKEEIVFRYYHKLRMSVEYSQSWGHFQNRVNLVGDIFRNDGSIMLQGVRESDGGNYTCSIHLGNLVFKKTIVLHVSPEEPRTL"}, "B2": {"name": "DW100: monoclonal anti-human JAML antibody (IgG1,κ), hybridoma ATCC PTA-13051; VH SEQ ID NO:19, VL SEQ ID NO:22 (antibody, V domains shown)", "VH": "DVQLVESGAELVRPGASKLSCKALAYTFTDYEMHWVKQTPVHGLEWIGIIHPGSGGTVYNQKFKGKATLTADKSSSTAYMELSSLTSEDSTVYYCTRRRYYGSSYNWYFDVWGAGN", "VL": "VLTQSPASLAASVGETVTITCRASENIYYSLAWYQQKQGKSPQLLIYNANSLEDGVPSRFSGSGSGTQYSLKINSMQPEDTATYFCEQTYDVPLTFGAGTKLEL"}}, "key": {"[1]": {"target": "T1, epithelial CAR on T84 monolayers (Homo sapiens, UniProt P78310)", "T1 construct": "endogenous in cells; host or cells: T84", "T1 sequence (P78310 20-365)": "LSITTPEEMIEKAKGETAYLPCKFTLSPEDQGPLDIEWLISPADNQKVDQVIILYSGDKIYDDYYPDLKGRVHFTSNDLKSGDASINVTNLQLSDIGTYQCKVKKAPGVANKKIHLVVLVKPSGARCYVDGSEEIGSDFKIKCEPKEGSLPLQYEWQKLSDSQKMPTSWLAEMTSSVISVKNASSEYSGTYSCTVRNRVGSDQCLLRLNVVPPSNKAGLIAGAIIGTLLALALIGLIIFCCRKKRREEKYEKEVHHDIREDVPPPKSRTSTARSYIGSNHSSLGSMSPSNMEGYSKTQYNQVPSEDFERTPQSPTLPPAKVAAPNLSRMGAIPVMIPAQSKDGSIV", "assay": "Soluble JAML binding to epithelial CAR, immunofluorescence", "assay_type": "cell-based", "settings": "sJAML 20 μg/ml, 1 h at 37° C. after 20 min Ca2+ free buffer; FIG. 7D", "description": "FIG. 7D. T84 monolayers were subjected to transient calcium depletion by preincubation in Ca^2+ free buffer (PBS) for 20 min to increase access to tight junctions, were incubated with sJAML (20 μg/ml) for 1 h at 37° C. […] The scale bar is 20 μm.\nAs it has been established that epithelial CAR is the ligand for JAML on PMN. Whether shed JAML, as well as the recombinant protein could bind to CAR was investigated. To do this, CHO cells stably expressing CAR protein (CHO-CAR) were incubated with either supernatants from PMA activated differentiated PLB-985 (that release high levels of soluble JAML upon activation, (FIG. 2)), or recombinant soluble JAML and stained with DW216 to detect bound JAML. […] The same observation was verified by IF (FIG. 7B). […] The calcium depletion disrupts intercellular junctions of the epithelium and allows for better penetration of soluble JAML."}, "[2]": {"target": "T2, CHO-JAML-His and CHO JAML-6xMyc (Homo sapiens, UniProt Q86YT9)", "T2 construct": "6xMyc (cell line CHO JAML-6xMyc); expressed in transfected cells", "T2 sequence (Q86YT9 20-394)": "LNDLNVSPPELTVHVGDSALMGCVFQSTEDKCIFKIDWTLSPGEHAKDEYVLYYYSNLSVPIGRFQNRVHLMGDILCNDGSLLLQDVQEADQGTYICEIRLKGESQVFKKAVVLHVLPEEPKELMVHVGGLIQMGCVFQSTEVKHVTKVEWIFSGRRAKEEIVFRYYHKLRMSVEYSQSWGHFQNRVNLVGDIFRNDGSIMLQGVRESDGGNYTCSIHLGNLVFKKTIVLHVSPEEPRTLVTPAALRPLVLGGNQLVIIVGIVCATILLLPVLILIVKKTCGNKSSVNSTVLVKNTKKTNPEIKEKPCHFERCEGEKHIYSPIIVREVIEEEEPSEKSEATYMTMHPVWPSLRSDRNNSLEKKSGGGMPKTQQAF", "assay": "FACS staining of stably transfected CHO-JAML cell lines", "assay_type": "binding", "settings": "FIG. 1A", "excerpt": "BALB/c mice were immunized with recombinant soluble fragment of JAML.D1D2 tagged with 10 His residues at the C-terminus (sJAML-His), generated in H293T cells and purified by Nickel chromatography. After the 4th boost, mice were given a final immunization and, 3 days later, spleen cells harvested and fused to the myeloma cell line P3U1. Hybridomas were selected in HAT medium and supernatants of clones were subjected to screening first to immobilized, soluble JAML and followed by staining of CHO-JAML stable transfectants. Three hybridomas were selected and antibodies were purified from ascites. FACS staining profiles of mAbs using two different, stably transfected CHO-JAML cell lines, CHO-JAML-His and CHO JAML-6xMyc, both membrane bound and tagged at the C-terminus with either 10-His or 6xMyc. Control antibody is 9E10 anti Myc.\nThese hybridomas were further tested for reactivity against tagged, full-length JAML expressed on the surface of cultured cells. CHO-JAML-6XMyc transfectants were aliquoted and pelleted into round bottom 96 well plates. 100 μl hybridoma supernatants were added for 1 hr at 4° C. Cells were washed and positive wells were identified by FACS analysis using Goat anti Mouse-AlexaFluor 488. Cells from positive wells were cloned by limiting dilution at one cell per well and expanded first in DMEM-10% FBS containing HAT then in medium containing HT (ATCC) and later DMEM, 10% FBS. The cloned cells of interest were sent to Harlan Laboratories (Indianapolis, Ind.) for production of ascites. Antibodies were purified from ascitic fluid using proteinA-Sepharose (GE Healthcare) followed by dialysis against PBS. Aliquots were frozen at −80° C. Ig subclass of each antibody was determined by using the IsoStrip Mouse Monoclonal Antibody Isotyping Kit (Roche Applied Science). […]\nCells suspensions of adherent cells were prepared by trypsinization with Trypsin-EDTA (Sigma). […] After final washes, cells were analyzed using FACS Calibur. […] All samples were stained for JAML (DW100 mAb) and CD11b/CD18 (CBRM 1/29), and only CD11b/CD18 positive cells (PMNs) were analyzed for JAML expression."}}}
{"molecule": "B1", "values": [{"measurement": "JAML labeling versus CAR staining on T84 monolayers", "setting": "[1]", "result": "highly colocalizes with staining of CAR"}]}
{"molecule": "B2", "values": [{"measurement": "FACS staining of CHO-JAML transfectant lines", "setting": "[2]", "result": "stained both transfectant lines equally well"}]}
